Measured values published in the DeepSol protein solubility set.

Experiment: soluble on expression in E. coli; label from the status in PepcDB or PDB records

Sequence | soluble on expression in E. coli
MAIADEFRQLQTRLLECWEGTETFIPELPRGPGGIERDILVVPSLSFPQPELGKITGYTHYEERQLYTLIQLRNPRTRMIYVTSQPLHPSIVDYYLDLLPGVPSCHARDRLLLLATYDRSDKPLTAKILERPRLLERIRQALRPNQAYMVCFNSTPLERELAVRLGVPLYSTDPDLLYWGTKAGSRELFAAAGIRHPIGSGFLQGVPELVRAIAHLQEKCPELQQLVVKLNEAFSGEGNALLDLRPLRPLGSPHTPDHLQRIENSLEDMVFQAPNETWASYRQRFTDLGGIVEAFVEGTVKRSPSVQGCITPKGSVEIVSTHEQLLNAPTGQIFIGCEFPAHADYRQQLQELGQKVGTYLAQQGVIGCFSVDVVATQTTEGWELYAIEINLRKGGTTHPFMTLKFLTDGHYELASGRFYSKHRRPKYYIASDNLCQPHYRGLLPNDLLDMIARYHLHFDSSTETGTVFHLMGALSEFGKLGLVSIGNTPEEAQAIYNQTIGVLDAAALLEHHHHHH | not soluble
MMFSLSKELEEYRAKIREYAQKTVREYAKQMDETNDGGDKIVKDLGEMGLLGMKQPTKYGGLGLGEMAFAIATEELGAESGGASHSLHTQQNALQLLVSVGGDSAQEWIEKGIKAKEVYAVALTEPQAGSDLGALQTTAKPDGNELVLNGEKIFTSAASFSTKMVVLARTSGNPGDRQGISLLLIDSKLPGIEIHKLDIMGIRGAGVSYVKFNNVRIPKDSIIGKEGDAYRGALKALMVSRNGYAGIAVGIARGALEEAISRAQSRKQFGKALIEQEWISFNLADAYIKVEAARLLTWRAAQLFDNDYEATTEASMAKYYAAVTATEVTRLALHIFGGHGLNRGSKVERLYRDAKIMEIAEGTNEMQLVAVSRLFQPKK | soluble
MQAAITVAIPILYKDSVSCSHAESEHFSGTGVTVIIFEVGRDCMKYSFLRQINACVCFDQYEEMEGLLCNGLYMFFIQYTPTILRGDLFAF | not soluble
MSLNEEQLSKRLEKVASYITKNERIADIGSDHAYLPCFAVKNQTASFAIAGEVVDGPFQSAQKQVRSSGLTEQIDVRKGNGLAVIEKKDAIDTIVIAGMGGTLIRTILEEGAAKLAGVTKLILQPNIAAWQLREWSEQNNWLITSEAILREDNKVYEIMVLAPSEKPVTWTKQEIFFGPCLLKEQSAIFKSKWRHEANTWQNIIQTISNNQPVSTENQAKIRELEHKIALVEDVLKEGHHHHHH | soluble
MADSSSSSFFPDFGLLLYLEELNKEELNTFKLFLKETMEPEHGLTPWNEVKKARREDLANLMKKYYPGEKAWSVSLKIFGKMNLKDLCERAKEEINWSAQTIGPDDAKAGETQEDQEAVLGDGTEYRNRIKEKFCITWDKKSLAGKPEDFHHGIAEKDRKLLEHLFDVDVKTGAQPQIVVLQGAAGVGKTTLVRKAMLDWAEGSLYQQRFKYVFYLNGREINQLKERSFAQLISKDWPSTEGPIEEIMYQPSSLLFIIDSFDELNFAFEEPEFALCEDWTQEHPVSFLMSSLLRKVMLPEASLLVTTRLTTSKRLKQLLKNHHYVELLGMSEDAREEYIYQFFEDKRWAMKVFSSLKSNEMLFSMCQVPLVCWAACTCLKQQMEKGGDVTLTCQTTTALFTCYISSLFTPVDGGSPSLPNQAQLRRLCQVAAKGIWTMTYVFYRENLRRLGLTQSDVSSFMDSNIIQKDAEYENCYVFTHLHVQEFFAAMFYMLKGSWEAGNPSCQPFEDLKSLLQSTSYKDPHLTQMKCFLFGLLNEDRVKQLERTFNCKMSLKIKSKLLQCMEVLGNSDYSPSQLGFLELFHCLYETQDKAFISQAMRCFPKVAINICEKIHLLVSSFCLKHCRCLRTIRLSVTVVFEKKILKTSLPTNTWLKFITFPDGCQDISTSLIHNKNLMHLDLKGSDIGDNGVKSLCEALKHPECKLQTLRLESCNLTVFCCLNISNALIRSQSLIFLNLSTNNLLDDGVQLLCEALRHPKCYLERLSLESCGLTEAGCEYLSLALISNKRLTHLCLADNVLGDGGVKLMSDALQHAQCTLKSLVLRRCHFTSLSSEYLSTSLLHNKSLTHLDLGSNWLQDNGVKLLCDVFRHPSCNLQDLELMGCVLTNACCLDLASVILNNPNLRSLDLGNNDLQDDGVKILCDALRYPNCNIQRLGLEYCGLTSLCCQDLSSALICNKRLIKMNLTQNTLGYEGIVKLYKVLKSPKCKLQVLGQQDFQAAQGKLQQRRPLKPLRPGQVNRKLKTEKETQNCRLSRRRIGPLETADQSQAAGARPAAGLRLRFRGLGD | soluble
MKKMLVLLFVCLLVLAGCSSKSEPQGGGAAKKAEPKVMKMAVATSKDRSLTKGLYKFAEIVEKETNGSIKVEVYPDGQLGGDVAVFEALKMGTIQGSTMSTGPIASFAPRIGVLDLPFLFKDRETAYKVLDGKIGQDLLNDLPSVGVIGLNYWENGFRHLTNNKREVKSVDDIKGLKIRTLENDLHIDLWKELGATPVPMVFTELFTALEQHVVDGQENPVGNVAINKFYEVQKYLTKTGHVYNASPLLISKKFWDTLTDKEKDIIKKAAEEARDYQRKLNQEEDEKMFDYLKQQGMVITELSPEEKQKFVEKVQPIYQKYAPKFGQDLVNELINAGK | not soluble
MAKSLTFSTFSPNNTLKKNVIPIVLLHGWGLNSGVWQPLLELFHRNDESIYQLITIDLPGFGINSAVDIKPYSLANICHHIEQVIDQPAIYLGWSLGGLIATEMSLKYPEKVLASITVASSPYFVEQPTDNWPGIKENVLESFHKQLAQDTAKTISGFLKIQAMGSPHIRQDLKLITQLVMAHTLPSQQTLADSLALLSNSDLRLHLSKIKQPLLRLYGHNDSLVPKEVMEKISYLAPNSDQHLFADASHAPFISHLDDFYQVLVVWLDSHFNLEHHHHHH | not soluble
MTASSDPHVIFVGSGINSLVSAALLATRGKRVLVLERNDRLGGCIRTEELFPGYHHEVMSSWYPLFVGSPGYAELKPALEQAGLAFLCPDYTTGLVWPDGRGLALKQDLNDAVQRLEALAPGDGAALGAMAARLFGPDAALTFGLLGQNPYGWAMLKLLFGQWRQRGTDGLAAFAADALETFRRWSERTLRSDLARALIAPWVLHSGLGPDDAGSALIGKLTFASVVSGGMPVVKGGGSRLVEALARVIEQHGGTLMTGTPVEQVLTEGQGRRRRATGVAVTGGRRLRAQQAVVCNVTPQQLYGRLLPEMPQPLRERAEGYRYGRGDMQIHFALNAPPAWREAELCKVPLVHLTESLEQVCASVTQANNGLLPSRPTLGIGQPTVADPSRAPAGGWILWIQMQELPTRLKGDAAGEIPVPADGRWNEAVREAFADRVQARLERVMPGLAERIVGRRAYSPADLEVLNCNLVGGDPYSGVCSPDQFFWLRPFAGSQGARAHRTPLANVFHIGASTHPGPGLGAGSGFMVAQHLSPR | not soluble
MSLRPSLDAWTKMECVMVKIKTSDGLEGWGEAFGHVMAPGTEAVINQILAPMLVGKDSVAINHRVAEMERPLHGLGRSGPVMYGLSAIDTALWDLAAQRANLPLFKFLGGDSGVLTKYASLMRYGGDTDAVAQNVERARSYGFRTIKLHETTIPAFRAARNAVDFDDKICLDVNCPWTVSEARDVAQEILEDGFHWLEEPIWPPEDFEGLAEVRLEGVPISAGENITTLHEFKLALETEAVDNLQPSVTKCGGVSMMRKIFSLSEVYPVTVIPHCFYWGPGYHATAHLAASCLNSTPLETAFITFAVEPHNLFNSHSDKVTLDDTPGLGFNANWEALDQFIISTNEVTEGHHHHHH | soluble
MSLSYLTEEKLTIVGAAGMIGSNMAQTAAMMRLTPNLCLYDPFAVGLEGVAEEIRHCGFEGLNLTFTSDIKEALTDAKYIVSSGGAPRKEGMTREDLLKGNAEIAAQLGKDIKSYCPDCKHVIIIFNPADITGLVTLIYSGLKPSQVTTLAGLDSTRLQSELAKHFGIKQSLVTNTRTYGGHGEQMAVFASTAKVNGTPLTDLIGTDKLTNEQWAELKQRVVKGGANIIKLRGRSSFQSPSYVSIEMIRAAMGGEAFRWPAGCYVNVPGFEHIMMAMETTITKDGVKHSDINQLGNEAERAALKESYSHLAKLRDEVIAMGIIPAIADWKTVNPNEGHHHHHH | soluble
MGWQTLKQQSVPARKRLLYLHIPFCATHCTFCGFYQNKLRDDSTATYTRYLLQELAMEADSPLHQSAPIHAVYFGGGTPTALAADELSQIIRAIRTSLPLAPDCEITVEGRAMDFDDERIDACLDAGANRFSIGIQTFDTRIRQRMARTSDKQQSIRFLERLCGRDRAAVVCDLMFGLPGQTPEIWREDLAIVSDLPLDGVDLYALNLLPTTPLAKAAENQRVALPDVVARRDFYRTGAAFLADSGWHQLSNSHWARTTRERNLYNLLIKQGADCLAMGSGAGGNINGQAYMMERSLERYYQQIDQGQKPIMMMTPASSTGPWQHQLQAGIEVGRIKLPQLTQHARELQPLLSQWHQAGLTCDDSTCLRLTNDGRFWANNLMQALQQIIPQLNAEEHAHLEHHHHHH | not soluble
DPDQFRAIIESPEGAGHVGYQYRRNTGSTMRMVSDVLDERVSLWDFHCDPSGNVIQPGPNVDSRQYLQAAIDYVSSNGGGTITIPAGYTWYLGSYGVGGIAGHSGIIQLRSNVNLNIEGRIHLSPFFDLKPFQVFVGFDNGDPASSGNLENCHIYGHGVVDFGGYEFGASSQLRNGVAFGRSYNCSVTGITFQNGDVTWAITLGWNGYGSNCYVRKCRFINLVNSSVNADHSTVYVNCPYSGVESCYFSMSSSFARNIACSVELHQHDTFYRGSTVNGYCRGAYVVMHAAEAAGAGSYAYNMQVENNIAVIYGQFVILGSDVTATVSGHLNDVIVSGNIVSIGERAAFSAPFGAFIDIGPDNSGASNVQDIQRVLVTGNSFYAPANITDSAAITLRANLNGCTFIANNFDCRYMVYNAPGTTSPVVQNLVWDKSNVIGGTHANQRAGQNLFDMQFASVVNSTIEVQLSCEDLSMFSCILFPASCQLSYSKITVDSAWTKSMSNTAVFEGNQQAGANVYVSYPATVNLTSYNTQGAVPFFSTDTNYAWVTSAYSLSINENLDFSPPATYTNKANGQLVGVGYNEIGGVRSVSVRLMLQRQV | soluble
MGSDKIHHHHHHMSMSVQQIDWDLALIQKYNYSGPRYTSYPTALEFSEDFGEQAFLQAVARYPERPLSLYVHIPFCHKLCYFCGCNKIVTRQQHKADQYLDALEQEIVHRAPLFAGRHVSQLHWGGGTPTYLNKAQISRLMKLLRENFQFNADAEISIEVDPREIELDVLDHLRAEGFNRLSMGVQDFNKEVQRLVNREQDEEFIFALLNHAREIGFTSTNIDLIYGLPKQTPESFAFTLKRVAELNPDRLSVFNYAHLPTIFAAQRKIKDADLPSPQQKLDILQETIAFLTQSGYQFIGMDHFARPDDELAVAQREGVLHRNFQGYTTQGDTDLLGMGVSAISMIGDCYAQNQKELKQYYQQVDEQGNALWRGIALTRDDCIRRDVIKSLICNFRLDYAPIEKQWDLHFADYFAEDLKLLAPLAKDGLVDVDEKGIQVTAKGRLLIRNICMCFDTYLRQKARMQQFSRVI | not soluble
LFPDELIDQLLAQVQGKDAESILGESGLAGQLKKQLAERMLAAELSHHLAAETEQGRAGNHRNGTSAKTVLTPNGELKLDIPRDRQATFEPQLVGKYQRRLPGFDDHVISMYARGMSVREIQGHLLELYGLQVSPDLISTVTDEVLADVEQWQQRPLEAMYPIVYFDALRLKIRDEGTVKNKAVYLALGIRAEGRKEVLGLWIEQTEGAKFWLKVFNELRTCQEFRVLRPVK | not soluble
GSSHHHHHHSSGLVPRGSHMGSIIDAAAAAGPVVLMETAFRKAVESRQIPGAVIMARDASGNLNYTRCFGARTVRRDENNQLPPLQVDTPCRLASATKLLTTIMVLQCMERGLVDLDETVDRLLPDLSAMPVLEGFDDAGNARLRERRGKITLRHLLTHTSGLSYVFLHPLLREYMAQGYLQSAEKFGIQSRLAPPAVNDPGAEWIYGTNLDWAGKLVERATGLDLEQYLQENICAPLGITDMTFKLQQRPDMLARRADQTHRNSADGRLRYDDSVYFRADGEECFGGQGVFSSPGSYMKVLHSLLKRDGLLLQPQTVDLMFQPALEPRLEEQMNQHMDASPHINYGGPMPMVLRRSFGLGGIIALEDLDGENWRRKGSLTFGGGPNIVWQIDPKAGLCTLAFFQLEPWNDPVCRDLTRTFEHAIYAQYQQG | soluble
